According to patent US20070128192A1:

Columns and labels:
[1] = molecular target: native (naturally occurring) human IL-13 released from HDLM-2 cells (human) (UniProt P35225); experiment: cell-based or functional assay
human IL-13 (human) = human IL-13 (human) (UniProt P35225); experiment: cell-based or functional assay
Chain of human IL-13 (human) (P35225 other isoform, or with tags, fused parts or gaps): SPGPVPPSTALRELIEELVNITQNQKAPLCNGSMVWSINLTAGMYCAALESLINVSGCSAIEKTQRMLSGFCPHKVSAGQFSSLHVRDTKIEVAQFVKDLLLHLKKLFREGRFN

Chain of native (naturally occurring) human IL-13 released from HDLM-2 cells (human) (P35225 other isoform, or with tags, fused parts or gaps): as above

IC50, HDLM-2 cell proliferation assay [1] [nM]	IC50, TF-1 proliferation assay (human IL-13 (human)) [nM]	IC50, eotaxin release from NHLF (human IL-13 (human)) [nM]	Substance
16.7	1.02	0.219	B-B13 (antibody)
10.7	0.471	0.623	JES10-5A2 (antibody)
